We go through one substance from patent US20090081786A1, “Peptide sequences for modulation of protein kinase C” (priority 2006, published 2009).

The target in this experiment is annexin V endogenous in CHO-K1 cells (Homo sapiens (Human)) (UniProt P08758). The experiment can be described thus: co-immunoprecipitation from CHO cells stimulated with 10 nM PMA, FIG. 2.

As for “δ-PKC endogenous in CHO-K1 cells (from UniProt P28867 1-674) (enzyme)”, the fold increase in the amount of complex after PMA stimulation (against before stimulation) came out at 4 fold.
